Experimental data reported in article PMC2891831, “Insight into the Mechanisms of Adenovirus Capsid Disassembly from Studies of Defensin Neutralization” (PLoS Pathogens, 2010).
“Also recorded” adds a separate entry of the source.

Assays:
HAdV species B2 = assay: Infection assay (hexon staining), HAdV species B2; assay type: cell-based, human adenovirus; conditions: 15 µM HD5, A549 cells, hexon staining at ~48 h, vs. no defensin
Experimental: (§1) To determine whether sensitivity to α-defensins is a general property of HAdVs, serotypes representative of HAdV species A–F were tested for infectivity in the presence of 15 µM HD5 or HNP1 (Figure 1). Wild type HAdVs rather than vectors were used for these studies, and infectivity was assessed by staining for hexon production. […] These studies indicate that sensitivity to α-defensins is species specific. In addition, particular HAdV serotypes are not equally sensitive to all defensins, indicating defensin sequence specificity as well.
(§2) Figure 1 Sensitivity to neutralization by alpha-defensins is AdV species specific. HAdVs were incubated with 15 µM HD5 (A) or HNP1 (B) and assessed for infectivity on A549 cells. Data are the mean of the percent infectivity compared to control cells infected with each virus in the absence of defensin for at least three independent experiments ± SD. The upper limit for quantification of this assay is 200%. […]
(§3) Prior to use in this assay, each virus stock was titrated on A549 cells. […] In parallel, wells were infected with two-fold serial dilutions of each virus to establish a standard curve for quantification with an upper limit of 200%. […] Total well fluorescence above background was quantified with ImageJ software. For each virus, samples were quantified by nonlinear regression against the standard curve using Prism software (GraphPad Software, Inc., La Jolla, CA).

[1] = tested on: binding of HAdV-5 to A549 cells (CAR receptor); assay: Fiber knob competition assay: binding of labeled HAdV-5 to cells; assay type: cell-based, human
Experimental: Figure 3 HD5 antiviral activity is structure dependent. A) Ribbon representation of HD5 (PDB 1ZMP). Three disulfide bonds are numbered, and the two residues comprising the conserved salt bridge (R6 and E14) are indicated. B) Ad5.eGFP was incubated with 15 µM of each of the indicated defensins. HD5-Abu is HD5 with the six cysteines replaced with L-α-aminobutyric acid. Data are the mean percent of eGFP positive cells compared to control cells infected in the absence of defensin for at least three independent experiments ± SD. C) Binding of Alexa Fluor 488-labeled HAdV-5 to cells was assessed after incubation with or without 20 µM HD5 or HD5-Abu and in competition with 100 nM 5FK or 16 FK. Data are the mean fold increase in geometric mean fluorescence compared to cells alone and are of at least 10,000 cells from each of three independent experiments ± SD.
In order to determine the receptor-dependence of this effect, we pre-incubated cells with recombinant fiber knob from HAdV-5 (5FK) to block receptor (CAR) interactions and measured cell binding of fluorescently labeled HAdV-5 that was pre-incubated with or without HD5 or HD5-Abu (Figure 3C). Cells incubated with fiber knob from HAdV-16 (16FK), which binds CD46, served as a control. We observed that virus binding to cells was reduced 5.2-fold in the presence of 5FK compared to 16FK. […]

HAdV species C = assay: Infection assay (hexon staining), HAdV species C; assay type: cell-based, human adenovirus; conditions: 15 µM HD5, A549 cells, hexon staining at ~48 h, vs. no defensin
Experimental: as §1, §2, §3

HAdV-19c = assay: Infection assay, HAdV-19c; assay type: cell-based, human adenovirus
Experimental: Figure 6 Neutralization determinants are located in fiber and penton base. A) Schematic of chimeric viruses. Capsid proteins are depicted in the order in which they are encoded in the virus genome for HAdV-5 (white) and HAdV-19c (grey). The variable residues in fiber (GYAR and DTET) are indicated for each construct. B) Each of the chimeric viruses was incubated with 5 µM (grey) or 10 µM (black) HD5 and assessed for infectivity on A549 cells. Data are the mean of the percent infectivity compared to control cells infected with each virus in the absence of defensin for at least three independent experiments ± SD. The upper limit for quantification of this assay is 200%.
We then combined the GYAR substitution with the PB substitution in a single construct (PB/GYAR).
as §3, with “cells. A virus concentration was chosen to produce 50–70% maximal signal in the absence of defensin as described below.” for “cells.”

B1: HD5: human alpha-defensin; synthetic, obtained from Peptides International; three disulfide bonds (PDB 1ZMP) (peptide, UniProt Q01523 20-94, looked up)
Defensin alpha 5: ESLQERADEATTQKQSGEDNQDLAISFAGNGLSALRTSGSQARATCYCRTGRCATRESLSGVCEISGRLYRLCCR
modifications: Defensin-5
Q: How did the “sensitivity to neutralization (infectivity)” value (HAdV species B2) turn out when B1 was run?
A: sensitive

Q: And the “interaction with CAR receptor in presence of HD5” value ([1]; 20 µM HD5, competition with 5FK)?
A: does not completely block the interaction with CAR receptor; also recorded: capacity of fiber to bind to CAR was not compromised by HD5 binding

Q: What about the “effect on virus binding to cells” value ([1]; virus pre-incubated with 20 µM HD5 or HD5-Abu, Alexa Fluor 488, fold increase in geometric mean fluorescence, three independent experiments) of the same molecule?
A: increased virus binding to cells; also recorded: enhanced by HD5

Q: And the “sensitivity to neutralization (infectivity)” value (HAdV species C)?
A: sensitive

Q: What about the “sensitivity to HD5 neutralization” value (HAdV-19c; 5 µM and 10 µM HD5, A549 cells) of the same molecule?
A: completely resistant to neutralization

Q: And the “defensin-resistance at higher HD5 concentration” value (HAdV-19c; 20 µM HD5, data not shown)?
A: confirmed the defensin-resistance
